Laboratory results as given in patent publication US20080112961A1.
pKd: −log10 of the molar value.

What was measured:
[1] = target: FcγRIIB (form not stated) (UniProt P31994); assay: ELISA
[2] = target: soluble monomeric FcγRIIIA, the extracellular region of FcγRIIIA joined to the linker-AVITAG sequence (UniProt P08637); assay: ELISA
[3] = target: soluble monomeric FcγRIIIA, the extracellular region of FcγRIIIA joined to the linker-AVITAG sequence (UniProt P08637); assay: BIAcore, Ab on BSA-FITC
[4] = target: FcγRIIB-Fc fusion protein, soluble dimer: extracellular domain of FcγRIIB fused to the hinge-CH2-CH3 domain of human IgG2 (human) (UniProt P31994); assay: BIAcore, Ab on BSA-FITC
FcγRIIB-Fc fusion protein, soluble dimer: extracellular domain of FcγRIIB fused to the hinge-CH2-CH3 domain of human IgG2 (human), sequence (P31994 43-217 limits assumed): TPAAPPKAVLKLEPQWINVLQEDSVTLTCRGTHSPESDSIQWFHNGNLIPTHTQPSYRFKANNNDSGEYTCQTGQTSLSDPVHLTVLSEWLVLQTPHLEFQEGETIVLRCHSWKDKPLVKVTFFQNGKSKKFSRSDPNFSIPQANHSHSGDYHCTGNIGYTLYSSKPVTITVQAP

FcγRIIB (form not stated), sequence (P31994 43-217 limits assumed): as above

| Substance | ELISA binding, fold vs Wt [1] [X] | ELISA, OD [2] [OD] | pKd [3] | pKd [4] |
| --- | --- | --- | --- | --- |
| ch4-4-20 MGFc 28 (N315I, A379M, D399E) (antibody) | 9 |  |  |  |
| ch4-4-20 Mut 6 (S219V) (from UniProt P01857 1-330) (antibody) |  | 0.6 | 6.58 | 7.18 |
| ch4-4-20 Mut 10 (P396L, A330S, K288N) (from UniProt P01857 1-330) (antibody) |  |  | 6.89 |  |
| ch4-4-20 Mut 14 (K334E, K288N) (from UniProt P01857 1-330) (antibody) |  |  | 7.12 |  |
| ch4-4-20 wild type (from UniProt P01857 1-330) (antibody) |  | 0.5 |  |  |
